Experimental data published in the supplement of paper PMC9112550, “Optimization of the antimicrobial peptide Bac7 by deep mutational scanning” (BMC Biology, 2022).

tested on: Escherichia coli TOP10; test: shrunken log2 fold change of peptide-encoding DNA abundance (4.5 h post-induction vs induction); higher = less antimicrobial activity (less host growth inhibition); details: time post-induction: 4.5 h; library: site-saturation at positions 5, 18, 19, 20
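Also: peptides expressed intracellularly from a pBAD plasmid library in pooled LB shake-flask culture, induced with 0.3% L-arabinose, DNA abundance read by NGS, three biological replicates, DESeq2 with apeglm shrinkage.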

Sequence	shrunken log2 fold change
RRIRERPPRLPRPRPRPKMHPRP	-0.134
RRIRYRPPRLPRPRPRPVETPRP	-0.0299
RRIRDRPPRLPRPRPRPQQPPRP	0.902
RRIRKRPPRLPRPRPRPIFWPRP	0.313
RRIRGRPPRLPRPRPRPHNSPRP	-0.0747
RRIRYRPPRLPRPRPRPSWSPRP	-0.179
RRIRNRPPRLPRPRPRPDLWPRP	0.551
RRIRHRPPRLPRPRPRPREVPRP	0.151
RRIRARPPRLPRPRPRPTTFPRP	0.177
RRIRWRPPRLPRPRPRPCEAPRP	0.471
RRIRCRPPRLPRPRPRPTDTPRP	-0.438
RRIRQRPPRLPRPRPRPCFAPRP	0.0874
RRIRGRPPRLPRPRPRPHMYPRP	-0.0997
RRIRFRPPRLPRPRPRPGDAPRP	0.158
RRIRCRPPRLPRPRPRPMWDPRP	-0.317
RRIRCRPPRLPRPRPRPAPWPRP	0.438
RRIRDRPPRLPRPRPRPFQYPRP	0.0242
RRIRSRPPRLPRPRPRPWNTPRP	-0.237
RRIRGRPPRLPRPRPRPRYGPRP	0.134
RRIRVRPPRLPRPRPRPPMRPRP	1.24
RRIRYRPPRLPRPRPRPLTMPRP	-0.529
RRIRFRPPRLPRPRPRPTQLPRP	0.364
RRIRDRPPRLPRPRPRPKWHPRP	0.179
RRIRARPPRLPRPRPRPCWIPRP	-0.197
RRIRKRPPRLPRPRPRPYKSPRP	-0.243

Sequence	shrunken log2 fold change
RRIRPRPPRLPRPRPRPAREPRP	0.68
RRIRFRPPRLPRPRPRPEGDPRP	0.0402
RRIRWRPPRLPRPRPRPLEWPRP	0.0624
RRIRRRPPRLPRPRPRPFKAPRP	0.182
RRIRPRPPRLPRPRPRPKIIPRP	-0.0308
RRIRWRPPRLPRPRPRPHETPRP	0.126
RRIRCRPPRLPRPRPRPSIWPRP	-0.342
RRIRIRPPRLPRPRPRPCWKPRP	0.00408
RRIRERPPRLPRPRPRPVGAPRP	0.392
RRIRCRPPRLPRPRPRPWKHPRP	-0.264
RRIRIRPPRLPRPRPRPVVSPRP	-0.503
RRIRSRPPRLPRPRPRPYINPRP	-0.879
RRIRARPPRLPRPRPRPVYAPRP	0.205
RRIRKRPPRLPRPRPRPRREPRP	0.853
RRIRHRPPRLPRPRPRPNNEPRP	-0.724
RRIRIRPPRLPRPRPRPERMPRP	-0.0641
RRIRNRPPRLPRPRPRPVWCPRP	-0.226
RRIRHRPPRLPRPRPRPCWGPRP	-0.137
RRIRIRPPRLPRPRPRPRKNPRP	-0.133
RRIRYRPPRLPRPRPRPLGVPRP	-0.0163
RRIRVRPPRLPRPRPRPRMSPRP	-0.079
RRIRHRPPRLPRPRPRPLHMPRP	-0.0732
RRIRARPPRLPRPRPRPYNVPRP	-0.284
RRIRRRPPRLPRPRPRPISYPRP	0.0496
RRIRQRPPRLPRPRPRPFVWPRP	0.049

Sequence	shrunken log2 fold change
RRIRVRPPRLPRPRPRPSQAPRP	0.0916
RRIRNRPPRLPRPRPRPVEHPRP	-0.123
RRIRQRPPRLPRPRPRPSFWPRP	0.0712
RRIRRRPPRLPRPRPRPFQHPRP	-0.248
RRIRARPPRLPRPRPRPTKDPRP	0.144
RRIRCRPPRLPRPRPRPNRLPRP	-0.00311
RRIRGRPPRLPRPRPRPMWDPRP	0.639
RRIRERPPRLPRPRPRPQPAPRP	0.171
RRIRARPPRLPRPRPRPRWKPRP	0.462
RRIRHRPPRLPRPRPRPQTKPRP	-0.0667
RRIRMRPPRLPRPRPRPTDTPRP	0.227
RRIRTRPPRLPRPRPRPEYAPRP	-0.00931
RRIRIRPPRLPRPRPRPETNPRP	-0.264
RRIRQRPPRLPRPRPRPACDPRP	0.0239
RRIRRRPPRLPRPRPRPWRFPRP	0.012
RRIRDRPPRLPRPRPRPATYPRP	-0.141
RRIRTRPPRLPRPRPRPGFFPRP	0.147
RRIRYRPPRLPRPRPRPFPRPRP	-0.0964
RRIRWRPPRLPRPRPRPVAFPRP	0.313
RRIRGRPPRLPRPRPRPYSRPRP	-0.024
RRIRQRPPRLPRPRPRPCHYPRP	-0.000921
RRIRGRPPRLPRPRPRPTMDPRP	0.985
RRIRFRPPRLPRPRPRPWVRPRP	0.0245
RRIRMRPPRLPRPRPRPWLCPRP	0.219
RRIRNRPPRLPRPRPRPYHRPRP	-0.121
